According to publication doi:10.1101/068965:

Biological target: EGFP-LOV2-OPTN_((412-520)) (Avena sativa | not stated) (UniProt Q96CV9)
Test: SEC

**Q.** Which stoichiometry N does the source give for “EGFP-LOV2-OPTN_((412-520)) (from UniProt Q96CV9 412-520) (designed binder)” here?
**A.** 2
